In article PMC3517609:
“And” between values parts separate entries of the source, which are not always exact repeats. Equal entries are not always repeated.

Key:
[1] = target: Surfactant associated protein-A (human (endogenous in BAL fluid and serum)) (UniProt Q8IWL2); assay: SEC; Superose 6 column, 500 µl of serum loaded, fractions of 800 µl, SP-A in the fractions by slot blot; column calibrated with blue dextran (2000 kDa), holotransferrin (669 kDa) and bovine serum albumin (66 kDa); a peak counts as present at 20 % or more of total SP-A
[2] = target: Surfactant associated protein-A (human (endogenous in BAL fluid and serum)) (UniProt Q8IWL2); assay: SEC; Superose 6 column, 1 ml of BAL fluid loaded, fractions of 800 µl, SP-A in the fractions by slot blot; column calibrated with blue dextran (2000 kDa), holotransferrin (669 kDa) and bovine serum albumin (66 kDa); a peak counts as present at 20 % or more of total SP-A
[3] = target: Surfactant associated protein-A (human (endogenous in BAL fluid and serum)) (UniProt Q8IWL2)
[4] = target: Surfactant associated protein-A (human (endogenous in BAL fluid and serum)) (UniProt Q8IWL2); assay: SEC; Superose 6 column, 500 µl of serum loaded, fractions of 800 µl, SP-A in the fractions by slot blot; column calibrated with blue dextran (2000 kDa), holotransferrin (669 kDa) and bovine serum albumin (66 kDa); a peak counts as present at 20 % or more of total SP-A; remark: listed apart in the source

stoichiometry N [1]: 2 and 3 | stoichiometry N [2]: 18 | size of agglutinates of anti-SP-A latex beads; BAL, 6mers, chronic bronchitis (n = 10) [3]: 316 Pixel | size of agglutinates of anti-SP-A latex beads; BAL, 6mers, controls (n = 10) [3]: 352 Pixel | size of agglutinates of anti-SP-A latex beads; BAL, 6mers, cystic fibrosis (n = 10) [3]: 234 Pixel | size of agglutinates of anti-SP-A latex beads; BAL, 18mers, chronic bronchitis (n = 10) [3]: 370 Pixel | size of agglutinates of anti-SP-A latex beads; BAL, 18mers, controls (n = 10) [3]: 517 Pixel | size of agglutinates of anti-SP-A latex beads; BAL, 18mers, cystic fibrosis (n = 10) [3]: 316 Pixel | size of agglutinates of anti-SP-A latex beads; BAL, trimers, chronic bronchitis (n = 10) [3]: 114 Pixel | size of agglutinates of anti-SP-A latex beads; BAL, trimers, controls (n = 10) [3]: 118 Pixel | size of agglutinates of anti-SP-A latex beads; BAL, trimers, cystic fibrosis (n = 10) [3]: 74 Pixel | size of agglutinates of anti-SP-A latex beads; serum, 6mers, chronic bronchitis (n = 10) [3]: 377 Pixel | size of agglutinates of anti-SP-A latex beads; serum, 6mers, controls (n = 10) [3]: 361 Pixel | size of agglutinates of anti-SP-A latex beads; serum, 6mers, cystic fibrosis (n = 10) [3]: 380 Pixel | size of agglutinates of anti-SP-A latex beads; serum, 18mers, chronic bronchitis (n = 10) [3]: 469 Pixel | size of agglutinates of anti-SP-A latex beads; serum, 18mers, controls (n = 10) [3]: 525 Pixel | size of agglutinates of anti-SP-A latex beads; serum, 18mers, cystic fibrosis (n = 10) [3]: 481 Pixel | size of agglutinates of anti-SP-A latex beads; serum, trimers, chronic bronchitis (n = 10) [3]: 143 Pixel | size of agglutinates of anti-SP-A latex beads; serum, trimers, controls (n = 10) [3]: 132 Pixel | size of agglutinates of anti-SP-A latex beads; serum, trimers, cystic fibrosis (n = 10) [3]: 146 Pixel | stoichiometry N [4]: 18
Substance: Surfactant associated protein-A (from UniProt Q8IWL2 21-248) (natural protein)
